Measured values reported in article PMC4027156.
Numbering of substitutions follows the chain as printed.

Key:
Settings in all cases: BLI in buffer A (5 mM HEPES pH 7.5, 10 mM NaCl), 2.5-10 uM protein; CD with 7.5 or 15 uM ds-(dCdG)6, protein/DNA 0-8, buffer not shown in material; temperature …
[1] = system: yabZαE3L (yaba-like disease virus); assay: BLI
[2] = target: T1, caZαPKZ K56A/P57A K56A;P57A (Carassius auratus) (UniProt Q7T2M9); assay: CD B-to-Z transition
T1 sequence: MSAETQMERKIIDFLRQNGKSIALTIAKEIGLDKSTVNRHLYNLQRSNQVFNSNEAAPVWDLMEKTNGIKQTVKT

[3] = target: T2, caZαPKZ R39A/K56A R39A;K56A (Carassius auratus) (UniProt Q7T2M9); assay: CD B-to-Z transition
T2 sequence: T1 sequence with R39A, A57P

[4] = target: T3, caZαPKZ S35A/K56A/P57A S35A;K56A;P57A (Carassius auratus) (UniProt Q7T2M9); assay: CD B-to-Z transition
T3 sequence: T1 sequence with S35A

Sequence	Kd [1]	binding signal (% of WT activity) [2]	binding signal (% of WT activity) [3]	binding signal (% of WT activity) [4]
ATTATATCGCGCGCGCGCGCGCGCGCGCG / CGCGCGCGCGCGCGCGCGCG [biotin-ATTATAT(CG)10 duplex]	87.2 nM	–	–	–
CGCGCGCGCGCG (double strand) [ds-(dCdG)6]	–	50	80	50
